Assay results as given in the Immune Epitope Database (IEDB).

Assays:
Experiment in all cases: IEDB peptide-MHC binding, cellular MHC/competitive/radioactivity; ≥ and ≤ were set here for values at or beyond the usual limits of such assays
HLA-A*02:02 = molecular target: HLA-A*02:02
HLA-A*02:05 = molecular target: HLA-A*02:05
HLA-A*02:01 = molecular target: HLA-A*02:01
[1] = source organism: Human immunodeficiency virus 1
[2] = source organism: Human immunodeficiency virus type 1 BH10
[3] = source organism: Hepatitis B virus subtype adw2

DPKVKQWPL
IC50 (HLA-A*02:02; [1]): 10000 nM | IC50 (HLA-A*02:05; [1]): 10000 nM

EADPTGHSY
IC50 (HLA-A*02:01; source organism: Homo sapiens): 10000 nM | IC50 (HLA-A*02:02; source organism: Homo sapiens): 10000 nM | IC50 (HLA-A*02:05; source organism: Homo sapiens): 10000 nM

ILKEPVHGV
IC50 (HLA-A*02:02; [2]): 150 nM | IC50 (HLA-A*02:05; [2]): 9.4 nM

IVGAETFYV
IC50 (HLA-A*02:01; source organism: HIV-1 M:B_MN): 3.5 nM | IC50 (HLA-A*02:02; source organism: HIV-1 M:B_MN): 62 nM | IC50 (HLA-A*02:05; source organism: HIV-1 M:B_MN): 6.5 nM

LLGRNSFEV
IC50 (HLA-A*02:02; source organism: Homo sapiens): 87 nM | IC50 (HLA-A*02:05; source organism: Homo sapiens): 19 nM

LLPIFFCLWV
IC50 (HLA-A*02:05; [3]): 10000 nM

STLPETTVVRR
IC50 (HLA-A*02:01; [3]): 1310 nM | IC50 (HLA-A*02:02; [3]): 10000 nM | IC50 (HLA-A*02:05; [3]): 10000 nM

WLSLLVPFV
IC50 (HLA-A*02:02; [3]): 34 nM | IC50 (HLA-A*02:05; [3]): 4 nM

YLHTLWKAGI
IC50 (HLA-A*02:02; [3]): 53 nM | IC50 (HLA-A*02:05; [3]): 57 nM
